The numbers were not newly measured in article PMC7522120, which cites them from elsewhere.

For orientation: Kd means a measure of binding affinity in units of concentration.

For this data set, the target named is Folate receptor alpha (Homo sapiens) (UniProt P15328).
Chain of Folate receptor alpha (Homo sapiens) (P15328 25-234): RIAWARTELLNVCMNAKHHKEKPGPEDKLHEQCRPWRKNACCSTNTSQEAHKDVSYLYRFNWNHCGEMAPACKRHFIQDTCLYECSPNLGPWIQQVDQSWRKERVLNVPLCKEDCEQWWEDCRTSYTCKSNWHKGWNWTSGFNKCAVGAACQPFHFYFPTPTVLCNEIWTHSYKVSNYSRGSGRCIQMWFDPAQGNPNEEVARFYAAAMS

Regarding farletuzumab, the Kd is 2 nM.
